What was measured:
CD5L (CD5 antigen-like) [1] = molecular target: T1, CD5L (CD5 antigen-like) (Homo sapiens, UniProt O43866 O43866:20-347); assay: MST; TBS; 1 nM labeled CD5L; conditions: tags: His-tagged, Sino Biological 10791-H08H; fluorescently labeled for MST except with Cy5-S76.T; predicted hairpin
T1 sequence: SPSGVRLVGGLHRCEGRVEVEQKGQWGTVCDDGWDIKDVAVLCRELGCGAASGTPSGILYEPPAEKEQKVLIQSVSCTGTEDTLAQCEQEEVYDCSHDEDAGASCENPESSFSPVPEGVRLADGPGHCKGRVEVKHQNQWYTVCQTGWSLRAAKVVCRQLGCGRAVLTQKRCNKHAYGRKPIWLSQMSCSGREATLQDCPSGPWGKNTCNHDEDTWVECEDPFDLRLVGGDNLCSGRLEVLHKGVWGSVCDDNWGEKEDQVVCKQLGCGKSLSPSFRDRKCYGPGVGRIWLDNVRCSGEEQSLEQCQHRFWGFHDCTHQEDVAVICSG
Procedure: (§1) Regarding the three sequences of the second selection, S11 and S23 sequences were incubated with constant concentration (1 nM) of labeled CD5L purified recombinant protein (Sino Biological Inc., Beijing, China) or labeled VEGF scrambled protein used as negative control (R&D System). S11 and S23 were diluted 1:1 (from 15000 to 0.05 nM) in binding buffer (pH 7.4, 1 mM MgCl2, 0.1% Tween20). S76 sequence was diluted 1:1 in Tris-buffered saline (TBS) from 1000 nM to 0.03 nM. S76.T was labeled with Cy5 and the concentration was kept constant at 2 nM. CD5L was diluted from 2000 nM to 0.06 nM in 50 mM Tris-HCl pH 7.8, 150 mM NaCl, 0.05% Tween20. 5 μl of each dilution step were mixed with 5 μl of the labeled CD5L or VEGF. The final reaction mixture contained a respective amount of aptamer sequences and constant 1 nM labeled CD5L or VEGF.

CD5L (CD5 antigen-like) [2] = molecular target: T1, CD5L (CD5 antigen-like); assay: MST; 50 mM Tris-HCl pH 7.8, 150 mM NaCl, 10 mM MgCl2, 0.05% Tween-20; 2 nM Cy5-S76.T; conditions: tags: His-tagged, Sino Biological 10791-H08H; fluorescently labeled for MST except with Cy5-S76.T; label: Cy5 (MST); hairpin
Procedure: For Cy5 labeled S76.T, a serial dilution of CD5L was prepared in the buffer composed by 50 mM Tris-HCl pH7.8, 150 mM NaCl, 10 mM MgCl2, 0.05 Tween-20. The highest concentration of CD5L was 2000 nM and the lowest 0.06 nM. 4 μl of each dilution step were mixed with 4 μl of the Cy5 labeled S76 truncated (4 nM stock). The final reaction mixture, which was filled in standard capillaries, contained a respective amount of CD5L (max. conc. 1000 nM, min conc. 0.03 nM) and constant 2 nM labeled S76 truncated MST measurement was obtained using Monolith NT.115 (NanoTemper Technologies GmbH, Munich, Germany) with standard capillaries. KD was determined as described by (Stoltenburg et al., 2015).

CD5L (CD5 antigen-like) [3] = molecular target: T1, CD5L (CD5 antigen-like); assay: MST; pH 7.4, 1 mM MgCl2, 0.1% Tween20; conditions: tags: His-tagged, Sino Biological 10791-H08H; fluorescently labeled for MST except with Cy5-S76.T; predicted hairpin
Procedure: as §1

CD5L (CD5 antigen-like) [4] = molecular target: T1, CD5L (CD5 antigen-like); assay: MST; PBS pH 7.4, 1 mM MgCl2, 0.05% Tween20; conditions: tags: His-tagged, Sino Biological 10791-H08H; fluorescently labeled for MST except with Cy5-S76.T; three predicted hairpins followed by single-strand ends
Procedure: A serial dilution of S5, S47, S63 and S72 was prepared in specific buffer composed by PBS pH 7.4, 1 mM of MgCl2 and 0.05% Tween20. The highest concentration used was 18000 nM and the lowest 0.54 nM. 4 μl of each dilution step were mixed with 4 μl of the labeled molecule CD5L purified recombinant protein (Sino Biological Inc., Beijing, China) or VEGF scrambled protein used as negative control (R&D System) (constant concentration of 12.5 nM).

B1: S76 (ssRNA)
RNA: AGACAAGAAUAAACGCUCAAUUAUCGGAGAGGCCGAACAGAUACUUCGUUAGACAGGUUGCAGCGUUCGACAGGAGGCUCACAACAGGC
modifications: 2'-F pyrimidines
- Kd (CD5L (CD5 antigen-like) [1]): 2.2 nM

Binder: AGGUUGCAGCGUUCGACAGGAGGCUCACAACAG (ssRNA, 2'-F pyrimidines) [S76.T]
- Kd (CD5L (CD5 antigen-like) [2]): 10.1 nM

B2: S11 (ssRNA)
RNA: AGACAAGAAUAAACGCUCAAUUAUCGGAGAGGCCGAACAGAUACUUCGUUAGACACCUUGCAGCGUUCGACAGGAGGC
modifications: 2'-F pyrimidines
- Kd (CD5L (CD5 antigen-like) [3]): 59.2 nM

B3: S23 (ssRNA)
RNA: AGACAAGAAUAAACGCUCAAAAAGAGAGAAGGAUAAGAACCAUCAAAAAGAGAGAGCAGAGCCAGAUUCGACAGGAGGCUCACAACAGGC
modifications: 2'-F pyrimidines
- Kd (CD5L (CD5 antigen-like) [3]): 92.1 nM

B4: S5 (ssRNA)
RNA: AGACAAGAAUAAACGCUCAAGCGAAGGUGUGACCACAAACCACAUAAAGGCAAGGUCGCGCCGCGUUCGACAGGAGGCUCACAACAGGC
modifications: 2'-F pyrimidines
- Kd (CD5L (CD5 antigen-like) [4]): 556 nM

Source: patent US20230167453, “RNA APTAMERS AND USE THEREOF FOR TREATING CANCER” (Board of Regents, The University of Texas System, published 2023)
